T1: amphyphisin SH3 (AMPH_HUMAN), P49418
T1 chain: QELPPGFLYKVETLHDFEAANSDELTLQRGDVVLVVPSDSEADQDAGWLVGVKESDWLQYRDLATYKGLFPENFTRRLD

The target of one assay is T1, amphyphisin SH3 (AMPH_HUMAN), P49418. The assay is described as follows: SPOT array.
As to RAPSPARPRRPHAS [Q9H8S7 104-117], the normalised SPOT signal, Boehringer light units (BLU); mean over the file's lines of this peptide came to 6640.

In the case of RADIPKRPSYVAPL [Q9Y2F3 1400-1413], the normalised SPOT signal, Boehringer light units (BLU); mean over the file's lines of this peptide is 47.6.

As for QVYVLKRPYVDEFL [O14595 137-150], the normalised SPOT signal, Boehringer light units (BLU); mean over the file's lines of this peptide stood at 6.6.

In turn, ATFSLRRPWTEAGA [P20800 107-120] showed a normalised SPOT signal, Boehringer light units (BLU); mean over the file's lines of this peptide of 20.7.

RAEVPTKPPLPPAR [Q9UKM7 224-238] came in with a normalised SPOT signal, Boehringer light units (BLU); mean over the file's lines of this peptide of 8090.

In the case of RAPRPTRPDKARRL [P39030 37-50], the normalised SPOT signal, Boehringer light units (BLU); mean over the file's lines of this peptide is 219.

Take RAITFRRPSRVHYY [Q96RS3 192-205]: the normalised SPOT signal, Boehringer light units (BLU); mean over the file's lines of this peptide came to 708.

RAASLRRPRRAASR [Q8WYB4 11-24] returned a normalised SPOT signal, Boehringer light units (BLU); mean over the file's lines of this peptide of 80.1.

Regarding RAPPPSRPPPRPSV [Q9H6X2 550-564], the normalised SPOT signal, Boehringer light units (BLU); mean over the file's lines of this peptide is 4340.

Take QYGFPRRPPPRGSQ [Q9BQH3 166-180]: the normalised SPOT signal, Boehringer light units (BLU); mean over the file's lines of this peptide was 3010.

As for RAQRIRRPFRPILN [Q9NR60 64-77], the normalised SPOT signal, Boehringer light units (BLU); mean over the file's lines of this peptide was found to be 180.

In turn, QYRSLPRPAKSSSM [Q9H9S9 177-190] registered a normalised SPOT signal, Boehringer light units (BLU); mean over the file's lines of this peptide of 220.

The molecule QVYVLKRPHVDEFL [O15194 206-219] returned a normalised SPOT signal, Boehringer light units (BLU); mean over the file's lines of this peptide of 19.5.

AASSPARPPGLQRS [Q9BQ89 173-187] came in with a normalised SPOT signal, Boehringer light units (BLU); mean over the file's lines of this peptide of 136.

As for QYNFLRRPQRMPVS [Q9BZC7 2011-2024], the normalised SPOT signal, Boehringer light units (BLU); mean over the file's lines of this peptide is 1220.

Another assay concerns the target endophilin SH3 (SH3G2_HUMAN), Q99962. The assay is described as follows: SPOT array.
For RAPSPARPRRPHAS [Q9H8S7 104-117], the normalised SPOT signal, Boehringer light units (BLU); mean over the file's lines of this peptide stood at 2140.

In the case of RADIPKRPSYVAPL [Q9Y2F3 1400-1413], the normalised SPOT signal, Boehringer light units (BLU); mean over the file's lines of this peptide amounted to 1460.

In turn, QVYVLKRPYVDEFL [O14595 137-150] showed a normalised SPOT signal, Boehringer light units (BLU); mean over the file's lines of this peptide of 28.4.

ATFSLRRPWTEAGA [P20800 107-120] gave a normalised SPOT signal, Boehringer light units (BLU); mean over the file's lines of this peptide of 61.3.

In turn, RAEVPTKPPLPPAR [Q9UKM7 224-238] had a normalised SPOT signal, Boehringer light units (BLU); mean over the file's lines of this peptide of 2440.

Consider RAPRPTRPDKARRL [P39030 37-50], for which the normalised SPOT signal, Boehringer light units (BLU); mean over the file's lines of this peptide amounted to 2140.

In the case of RAITFRRPSRVHYY [Q96RS3 192-205], the normalised SPOT signal, Boehringer light units (BLU); mean over the file's lines of this peptide stood at 33.9.

As to RAASLRRPRRAASR [Q8WYB4 11-24], the normalised SPOT signal, Boehringer light units (BLU); mean over the file's lines of this peptide came to 72.5.

RAPPPSRPPPRPSV [Q9H6X2 550-564] had a normalised SPOT signal, Boehringer light units (BLU); mean over the file's lines of this peptide of 11000.

Take QYGFPRRPPPRGSQ [Q9BQH3 166-180]: the normalised SPOT signal, Boehringer light units (BLU); mean over the file's lines of this peptide turned out to be 2120.

Molecule RAQRIRRPFRPILN [Q9NR60 64-77] displayed a normalised SPOT signal, Boehringer light units (BLU); mean over the file's lines of this peptide of 80.9.

The molecule QYRSLPRPAKSSSM [Q9H9S9 177-190] displayed a normalised SPOT signal, Boehringer light units (BLU); mean over the file's lines of this peptide of 764.

In the case of QVYVLKRPHVDEFL [O15194 206-219], the normalised SPOT signal, Boehringer light units (BLU); mean over the file's lines of this peptide came to 58.8.

In the case of AASSPARPPGLQRS [Q9BQ89 173-187], the normalised SPOT signal, Boehringer light units (BLU); mean over the file's lines of this peptide amounted to 3950.

In the case of QYNFLRRPQRMPVS [Q9BZC7 2011-2024], the normalised SPOT signal, Boehringer light units (BLU); mean over the file's lines of this peptide turned out to be 764.

Values taken from PMC314469, “Protein Interaction Networks by Proteome Peptide Scanning” (PLoS Biology, 2004).
